Data from PMC3838125, “Crystal Structure of Venezuelan Hemorrhagic Fever Virus Fusion Glycoprotein Reveals a Class 1 Postfusion Architecture with Extensive Glycosylation” (Journal of Virology, 2013).

Target: the molecule itself
Assay: crystal structure

B1: Guanarito virus (GTOV) fusion glycoprotein GP2, residues 292 to 418 (domain or fragment)
chain: DSEFCDMLRLFDFNKNAIEKLNNQTKTAVNMLTHSINSLISDNLLMRNKLKEILKVPYCNYTRFWYINHTKSGEHSLPRCWLVSNGSYLNESDFRNEWILESDHLIAEMLSKEYQDRQGKTPLTLVD
notes: also called GTOV GP2
stoichiometry N: 3
